Results: paper PMC10686989, “Distinct activation mechanisms of β-arrestin-1 revealed by ^19F NMR spectroscopy” (Nature Communications, 2023)

Target: cysteine-less β-arrestin-1 D390C, 19F-labelled with wPSP-6F (human) (UniProt P49407)
Experiment: NMR titration; 19F NMR of wPSP-6F-labelled βarr1 (D390C site) titrated with phosphopeptide; 298 K, 20 mM Tris-HCl, 150 mM NaCl, pH 8.0; Kd estimated

Chain of cysteine-less β-arrestin-1 D390C, 19F-labelled with wPSP-6F (human) (P49407 whole entry C59V/C125S/C140L/C150V/C242V/C251V/C269S/D390C): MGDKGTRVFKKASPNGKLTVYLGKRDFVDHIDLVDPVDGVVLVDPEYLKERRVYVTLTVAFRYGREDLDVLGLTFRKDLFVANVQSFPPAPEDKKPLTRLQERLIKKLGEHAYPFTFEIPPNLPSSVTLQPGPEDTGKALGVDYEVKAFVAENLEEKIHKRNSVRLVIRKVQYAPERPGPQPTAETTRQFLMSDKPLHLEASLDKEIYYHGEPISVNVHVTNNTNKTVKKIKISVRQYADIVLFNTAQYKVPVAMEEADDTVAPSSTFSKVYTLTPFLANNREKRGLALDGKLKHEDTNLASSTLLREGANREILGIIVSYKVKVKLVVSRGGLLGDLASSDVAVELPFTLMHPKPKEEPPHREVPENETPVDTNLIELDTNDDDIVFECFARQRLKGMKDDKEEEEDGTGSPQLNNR

Kd: 1300 nM
Substance: V2Rpp, phosphopeptide derived from the vasopressin V2 receptor (V2R)
